Target: human BAFF (residues 82-285) (human) (UniProt Q9Y275)
Test: BJAB cell competitive binding assay: soluble BR3-Fc keeps biotin-BAFF from BR3 on the cells

human BAFF (residues 82-285) (human), sequence (Q9Y275 82-285 limits assumed): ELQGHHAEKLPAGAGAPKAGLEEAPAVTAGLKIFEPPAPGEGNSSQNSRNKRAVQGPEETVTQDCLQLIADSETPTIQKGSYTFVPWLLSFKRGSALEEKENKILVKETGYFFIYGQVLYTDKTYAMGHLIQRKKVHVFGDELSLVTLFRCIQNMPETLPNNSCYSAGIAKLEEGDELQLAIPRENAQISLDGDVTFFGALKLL

IC50: 3.22 nM
Substance: hBR3Fc (Fc fusion)

Reference: patent US20100280227A1
